Data as given in article PMC8461249 (2021).

T1: TβRII-SE/Fc (TβRII-Soluble Endogenous fused to the human IgG1 Fc domain) (human)
T1 chain: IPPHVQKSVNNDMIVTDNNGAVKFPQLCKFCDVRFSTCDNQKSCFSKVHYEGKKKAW


Key:
Experiment in all cases: SPR
1D11 = target: 1D11
[1] = target: T2, TβRII-Fc (TβRII extracellular domain fused to human IgG1 Fc) (human, UniProt P37173-1 23-166)
[2] = target: T1, TβRII-SE/Fc (TβRII-Soluble Endogenous …)
[3] = target: T2, TβRII-Fc (TβRII extracellular domain …); remark: listed apart in the source
[4] = target: T1, TβRII-SE/Fc (TβRII-Soluble Endogenous …)

T2 sequence (P37173 23-166): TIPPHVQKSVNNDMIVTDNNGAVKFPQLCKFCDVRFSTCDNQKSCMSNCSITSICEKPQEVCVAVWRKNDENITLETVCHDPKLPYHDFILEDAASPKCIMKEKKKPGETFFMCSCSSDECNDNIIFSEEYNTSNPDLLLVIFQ

Row | Kd (1D11) | koff (1D11) | koff [1] | koff [2] | Kd [3] | Kd [4] | Binder
1 | 0.33 nM | 0.0015 s⁻¹ | 0.0197 s⁻¹ | 0.00067 s⁻¹ | 9.5 nM | 0.674 nM | TGF-β2 (ligand) ALDAAYCFRNVQDNCCLRPLYIDFKRDLGWKWIHEPKGYNANFCAGACPYLWSSDTQHSRVLSLYNTINPEASASPCCVSQDLEPLTILYYIGKTPKIEQLSNMIVKSCKCS
2 | 0.068 nM | 0.00012 s⁻¹ | 0.00116 s⁻¹ | 0.00018 s⁻¹ | 0.137 nM | 0.093 nM | TGF-β3 (ligand) ALDTNYCFRNLEENCCVRPLYIDFRQDLGWKWVHEPKGYYANFCSGPCPYLRSADTTHSTVLGLYNTLNPEASASPCCVPQDLEPLTILYYVGRTPKVEQLSNMVVKSCKCS
